Measured values published in patent publication US20210214434A1 (LABORATOIRE FRAN AIS DU FRACTIONNEMENT ET DES …, published 2021).

T1: human CD32aH receptor on transfected HEK cells (HEK-CD32) (human, UniProt P12318 34-317)
T1 construct: whole, on cells; also called hCD32aH; FcγRIIa (CD32a)
T1 sequence (looked up): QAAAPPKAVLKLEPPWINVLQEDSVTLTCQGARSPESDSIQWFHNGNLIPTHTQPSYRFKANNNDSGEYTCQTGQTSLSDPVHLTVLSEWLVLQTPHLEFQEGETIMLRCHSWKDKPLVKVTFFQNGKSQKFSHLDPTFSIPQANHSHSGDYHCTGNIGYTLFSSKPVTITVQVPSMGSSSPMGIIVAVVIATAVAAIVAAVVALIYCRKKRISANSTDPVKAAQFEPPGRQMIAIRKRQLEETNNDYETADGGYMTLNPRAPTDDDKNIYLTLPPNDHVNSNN

T2: human CD32aR receptor on transfected HEK cells (HEK-CD32) (human, UniProt P12318 34-317)
T2 construct: whole, on cells; also called hCD32aR; FcγRIIa (CD32a)
T2 sequence (looked up): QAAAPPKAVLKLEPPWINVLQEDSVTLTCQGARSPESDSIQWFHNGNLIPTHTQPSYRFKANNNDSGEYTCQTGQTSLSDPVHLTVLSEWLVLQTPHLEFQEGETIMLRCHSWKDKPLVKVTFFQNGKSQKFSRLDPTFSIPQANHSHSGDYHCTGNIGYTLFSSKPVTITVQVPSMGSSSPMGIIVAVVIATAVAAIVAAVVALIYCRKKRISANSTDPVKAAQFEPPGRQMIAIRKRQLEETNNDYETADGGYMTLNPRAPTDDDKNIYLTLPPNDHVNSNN

T3: CD32b (UniProt P31994 43-310, limits assumed)
T3 construct: probably on transfected cells as for CD32a
T3 sequence (looked up): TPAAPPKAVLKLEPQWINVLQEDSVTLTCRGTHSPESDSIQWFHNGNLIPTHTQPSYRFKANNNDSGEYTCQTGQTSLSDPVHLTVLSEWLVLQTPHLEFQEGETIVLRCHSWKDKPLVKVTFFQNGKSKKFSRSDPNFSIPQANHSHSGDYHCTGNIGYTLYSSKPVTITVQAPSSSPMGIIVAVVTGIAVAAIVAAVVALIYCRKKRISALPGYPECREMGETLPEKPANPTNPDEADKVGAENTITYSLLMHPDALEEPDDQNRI

T4: HisTag hCD32aH receptor (PX therapeutics) (human, UniProt P12318 34-217, limits assumed)
T4 construct: Captured on anti-Penta-HIS biosensors; also called FcγRIIa (CD32a); not shown: HisTag
T4 sequence (looked up): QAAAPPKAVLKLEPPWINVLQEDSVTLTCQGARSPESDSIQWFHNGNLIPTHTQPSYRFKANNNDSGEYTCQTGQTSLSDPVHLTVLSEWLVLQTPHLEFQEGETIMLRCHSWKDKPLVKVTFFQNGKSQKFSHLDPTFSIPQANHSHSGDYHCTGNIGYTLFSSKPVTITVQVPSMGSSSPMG


What was measured:
[1] = target: T1, human CD32aH receptor on transfected …; test: flow cytometry competition on HEK-CD32 cells, displacement of Rituxan-A488 (30 µg/ml)
Method: (§1) The cells are then washed by adding 100 μl of PBS at pH 6 and centrifuged at 1700 rpm for 3 minutes at 4° C. The supernatant is then removed and 300 μl of cold PBS is added at pH 6.

[2] = target: T2, human CD32aR receptor on transfected …; test: as above
Method: as §1

[3] = target: T5, human CD64 receptor expressed by Jurkat cells (Jurkat-CD64) (human, UniProt P12314 16-374); test: flow cytometry competition on Jurkat-CD64 cells, displacement of Rituxan-A488 (25 µg/ml)
T5 construct: whole, on cells; also called hCD64; FcγRI (CD64)

[4] = target: T6, HisTag hCD16aV receptor (R&D System) (human, UniProt P08637 17-208); test: BLI (Octet), HisTag hCD16aV on anti-Penta-HIS biosensors, 1/1 model; SD 18.1
T6 construct: Captured on anti-Penta-HIS biosensors; also called human FcγRIIIa-V; FcγRIIIa (CD16a); not shown: HisTag
Method: (§2) The molecules were tested at concentrations of 1000, 500, 250, 125, 62.5, 31, […] and 0 nM in kinetic buffer.
(§3) The association and dissociation curves (first 5 s) are used to calculate the kinetic constants of association (kon) and dissociation (koff) using a 1/1 association model. KD (nM) is then calculated […].

[5] = target: T5, human CD64 receptor expressed by Jurkat …; test: cell-based or functional assay
[6] = target: T3, CD32b; test: competition assay, protocol and competitor for CD32b not described
[7] = target: T7, human CD16aH receptor on transfected Jurkat cells (Jurkat-CD16aH) (human, UniProt P08637 17-254); test: flow cytometry competition on Jurkat-CD16aH cells, displacement of mAb 3G8-PE (0.5 µg/ml)
T7 construct: whole, on cells; also called hCD16aH; CD16a-F
Method: The Jurkat-CD16aH cells are seeded in a 96-well plate (V bottom) at a concentration of 2.10⁵ cells per well.
The cells are then washed by adding […] of PBS at pH 6 and centrifuged at 1700 rpm for 3 minutes at 4° C. The supernatant is then removed and 300 μl of cold PBS is added at pH 6.

[8] = target: T8, human FcRn receptor expressed by Jurkat cells (Jurkat-FcRn) (human, UniProt P55899 24-365; P61769 21-119); test: flow cytometry competition on Jurkat-FcRn cells, displacement of Rituxan-A488 (25 µg/ml), pH 6
T8 construct: whole, on cells; also called hFcRn
Method: The Jurkat-FcRn cells are seeded in a 96-well plate (V bottom) at a concentration of 2.10⁵ cells per well.
as §1

[9] = target: biotinylated human FcRn receptor (hFcRn), immobilized on Streptavidin Biosensors (human, UniProt P55899 24-297; P61769 21-119, limits assumed, biotinylated (site not stated)); test: BLI (Octet), biotinylated hFcRn on streptavidin biosensors, pH 6, 1/1 model; SD 0
Method: The association and dissociation curves (first 10 s) are used to calculate the kinetic constants of association (kon) and dissociation (koff) using a 1/1 association model. KD (nM) is then calculated […].

[10] = target: complement proteins, in particular C1q (complement of the young rabbit serum used in the CDC test) (rabbit); test: cell-based or functional assay
[11] = target: T6, HisTag hCD16aV receptor (R&D System); test: BLI (Octet), HisTag hCD16aV on anti-Penta-HIS biosensors, 1/1 model; SD 14.1
[12] = target: T4, HisTag hCD32aH receptor (PX …); test: BLI (Octet), HisTag hCD32aH on anti-Penta-HIS biosensors, 1/1 model; SD 29.7
[13] = target: T6, HisTag hCD16aV receptor (R&D System); test: BLI (Octet), HisTag hCD16aV on anti-Penta-HIS biosensors, 1/1 model; SD 7.7
Method: as §2, §3

[14] = target: T6, HisTag hCD16aV receptor (R&D System); test: BLI (Octet), HisTag hCD16aV on anti-Penta-HIS biosensors, 1/1 model; SD 10.7
Method: as §2, §3

T5 sequence (P12314 16-374): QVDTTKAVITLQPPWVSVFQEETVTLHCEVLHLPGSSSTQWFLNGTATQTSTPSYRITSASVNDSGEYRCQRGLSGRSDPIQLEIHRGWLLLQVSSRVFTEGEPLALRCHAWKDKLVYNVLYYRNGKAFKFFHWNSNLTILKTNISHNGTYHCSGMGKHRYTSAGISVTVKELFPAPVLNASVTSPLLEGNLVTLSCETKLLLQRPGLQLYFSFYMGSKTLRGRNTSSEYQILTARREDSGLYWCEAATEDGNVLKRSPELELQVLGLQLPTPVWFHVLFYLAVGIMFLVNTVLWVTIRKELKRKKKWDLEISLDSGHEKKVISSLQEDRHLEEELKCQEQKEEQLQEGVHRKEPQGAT
T6 sequence (P08637 17-208 F176V limits assumed): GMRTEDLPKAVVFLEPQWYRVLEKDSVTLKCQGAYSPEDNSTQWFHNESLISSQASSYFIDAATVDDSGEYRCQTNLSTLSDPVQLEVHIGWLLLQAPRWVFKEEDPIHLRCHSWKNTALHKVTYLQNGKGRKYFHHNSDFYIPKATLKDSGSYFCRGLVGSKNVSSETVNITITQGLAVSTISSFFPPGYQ
T7 sequence (P08637 17-254): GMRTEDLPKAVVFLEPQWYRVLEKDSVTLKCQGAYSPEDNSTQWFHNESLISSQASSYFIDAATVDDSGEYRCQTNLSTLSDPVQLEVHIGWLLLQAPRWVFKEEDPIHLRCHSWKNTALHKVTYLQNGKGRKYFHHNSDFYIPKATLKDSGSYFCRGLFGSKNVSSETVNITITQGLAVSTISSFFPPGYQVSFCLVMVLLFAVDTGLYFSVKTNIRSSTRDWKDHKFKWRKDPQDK

Row | IC50 [1] | IC50 [2] | IC50 [3] | Kd [4] | Inhibition of the secretion of IL-2 of the Jurkat cells transfected with CD64 (IC 25%, nM) [5] | Inhibition of the secretion of IL-2 of the Jurkat cells transfected with CD64 (IC 50%, nM) [5] | IC50 [6] | IC50 [7] | IC50 [8] | Kd [9] | IC50 (read off the curve) [10] | Kd [11] | Kd [12] | Kd [13] | Kd [14] | Binder
1 | 135 nM | 176 nM | 84 nM | 80.3 nM | 448 nM | 600 nM | 57 nM | 262 nM | 13 nM |  |  |  |  |  |  | A3A-184AY_CHO (K334N/P352S/A378V/V397M/N434Y), Fc variant produced in CHO cells (other, also called Fc A3A-184AY CHO) DKTHTCPPCPAPELLGGPSVFLFPPKPKDTLMISRTPEVTCVVVDVSHEDPEVKFNWYVDGVEVHNAKTKPREEQYNSTYRVVSVLTVLHQDWLNGKEYKCKVSNKALPAPIENTISKAKGQPREPQVYTLSPSRDELTKNQVSLTCLVKGFYPSDIVVEWESNGQPENNYKTTPPMLDSDGSFFLYSKLTVDKSRWQQGNVFSCSVMHEALHYHYTQKSLSLSPGK
2 |  |  | 494 nM |  | 1460 nM | < 1950 nM |  |  | 14 nM |  |  |  |  |  |  | Fc MST-HN fragment containing the mutations M252Y/S254T/T256E/H433K/N434F, produced in HEK-293 cells (other, UniProt P01857-1 104-330, looked up, name in EU numbering) DKTHTCPPCPAPELLGGPSVFLFPPKPKDTLYITREPEVTCVVVDVSHEDPEVKFNWYVDGVEVHNAKTKPREEQYNSTYRVVSVLTVLHQDWLNGKEYKCKVSNKALPAPIEKTISKAKGQPREPQVYTLPPSRDELTKNQVSLTCLVKGFYPSDIAVEWESNGQPENNYKTTPPVLDSDGSFFLYSKLTVDKSRWQQGNVFSCSVMHEALKFHYTQKSLSLSPGK
3 |  |  |  |  |  |  |  |  |  | 7.8 nM | ~200 nM | 132 nM | 313 nM |  |  | Fc variant A3A-184AY (HEK) (K334N/P352S/A378V/V397M/N434Y), produced in HEK293 cells (other, also called Fc A3A 184AY (HEK); rFc A3A-184AY) DKTHTCPPCPAPELLGGPSVFLFPPKPKDTLMISRTPEVTCVVVDVSHEDPEVKFNWYVDGVEVHNAKTKPREEQYNSTYRVVSVLTVLHQDWLNGKEYKCKVSNKALPAPIENTISKAKGQPREPQVYTLSPSRDELTKNQVSLTCLVKGFYPSDIVVEWESNGQPENNYKTTPPMLDSDGSFFLYSKLTVDKSRWQQGNVFSCSVMHEALHYHYTQKSLSLSPGK
4 | 147 nM | 132 nM | 70 nM |  | 442 nM | 600 nM | 55 nM |  | 15 nM |  |  |  |  | 59.3 nM |  | A3A-184EY_CHO (Y296W/K334N/P352S/A378V/V397M/N434Y), Fc variant produced in CHO cells (other, probably a misprint; also called Fc A3A-184EY CHO) DKTHTCPPCPAPELLGGPSVFLFPPKPKDTLMISRTPEVTCVVVDVSHEDPEVKFNWYVDGVEVHNAKTKPREEQWNSTYRVVSVLTVLHQDWLNGKEYKCKVSNKALPAPIENTISKAKGQPREPQVYTLSPSRDELTKNQVSLTCLVKGFYPSDIVVEWESNGQPENNYKTTPPMLDSDGSFFLYSKLTVDKSRWQQGNVFSCSVMHEALHYHYTQKSLSLSPGK
5 | 170 nM |  | 87 nM |  |  |  | 59 nM |  | 12 nM |  |  |  |  |  | 51.2 nM | A3A-184AY_TGg, Fc variant A3A-184AY produced in the transgenic goat (other) DKTHTCPPCPAPELLGGPSVFLFPPKPKDTLMISRTPEVTCVVVDVSHEDPEVKFNWYVDGVEVHNAKTKPREEQYNSTYRVVSVLTVLHQDWLNGKEYKCKVSNKALPAPIENTISKAKGQPREPQVYTLSPSRDELTKNQVSLTCLVKGFYPSDIVVEWESNGQPENNYKTTPPMLDSDGSFFLYSKLTVDKSRWQQGNVFSCSVMHEALHYHYTQKSLSLSPGK
